We go through one molecule from PMC4668074, “NDK Interacts with FtsZ and Converts GDP to GTP to Trigger FtsZ Polymerisation - A Novel Role for NDK” (PLoS ONE, 2015).

The target of assay [1] is T1, 6xHis-MtFtsZ (Mycobacterium tuberculosis FtsZ) (Mycobacterium tuberculosis, UniProt P9WN95 1-379).
T1 construct: also called MtZ
T1 sequence: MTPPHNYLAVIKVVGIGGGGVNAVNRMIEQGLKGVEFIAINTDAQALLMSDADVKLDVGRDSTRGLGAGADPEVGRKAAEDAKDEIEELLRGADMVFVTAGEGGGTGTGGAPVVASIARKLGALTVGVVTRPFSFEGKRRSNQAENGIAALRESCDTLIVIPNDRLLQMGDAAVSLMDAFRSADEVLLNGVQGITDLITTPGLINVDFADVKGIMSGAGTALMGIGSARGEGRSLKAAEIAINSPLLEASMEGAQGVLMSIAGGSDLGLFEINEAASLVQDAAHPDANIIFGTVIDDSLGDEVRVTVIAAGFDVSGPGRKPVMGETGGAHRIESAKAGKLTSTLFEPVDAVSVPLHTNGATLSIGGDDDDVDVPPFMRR
Nature of the assay: pull-down. The following applies: both partners purified.

In assay [2] the target is T2, 6xHis-EcFtsZ (FtsZ of E. coli) (E. coli, UniProt P0A9A6 1-383).
T2 sequence (looked up): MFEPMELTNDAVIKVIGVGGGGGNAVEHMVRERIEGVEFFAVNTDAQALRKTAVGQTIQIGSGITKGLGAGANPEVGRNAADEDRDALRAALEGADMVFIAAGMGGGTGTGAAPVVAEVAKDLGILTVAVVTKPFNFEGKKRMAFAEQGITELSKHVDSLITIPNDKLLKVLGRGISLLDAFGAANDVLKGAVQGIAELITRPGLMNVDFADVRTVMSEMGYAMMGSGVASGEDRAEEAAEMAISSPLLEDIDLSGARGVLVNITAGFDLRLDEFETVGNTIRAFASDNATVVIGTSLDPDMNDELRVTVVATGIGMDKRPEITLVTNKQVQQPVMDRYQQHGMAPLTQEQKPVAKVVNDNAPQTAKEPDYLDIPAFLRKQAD
Nature of the assay: pull-down. The following applies: both partners purified.

B1: GST-MtNDK (Mycobacterium tuberculosis nucleoside diphosphate kinase) (enzyme)
chain: MTERTLVLIKPDGIERQLIGEIISRIERKGLTIAALQLRTVSAELASQHYAEHEGKPFFGSLLEFITSGPVVAAIVEGTRAIAAVRQLAGGTDPVQAAAPGTIRGDFALETQFNLVHGSDSAESAQREIALWFPGA
notes: also called GST-NDK; MtNDK-Wt
For B1, the binding result in assay [1] and in assay [2] was “binds” throughout.
